T1: ADAMTS-4 (Homo sapiens, UniProt O75173)
T1 sequence (O75173 213-837): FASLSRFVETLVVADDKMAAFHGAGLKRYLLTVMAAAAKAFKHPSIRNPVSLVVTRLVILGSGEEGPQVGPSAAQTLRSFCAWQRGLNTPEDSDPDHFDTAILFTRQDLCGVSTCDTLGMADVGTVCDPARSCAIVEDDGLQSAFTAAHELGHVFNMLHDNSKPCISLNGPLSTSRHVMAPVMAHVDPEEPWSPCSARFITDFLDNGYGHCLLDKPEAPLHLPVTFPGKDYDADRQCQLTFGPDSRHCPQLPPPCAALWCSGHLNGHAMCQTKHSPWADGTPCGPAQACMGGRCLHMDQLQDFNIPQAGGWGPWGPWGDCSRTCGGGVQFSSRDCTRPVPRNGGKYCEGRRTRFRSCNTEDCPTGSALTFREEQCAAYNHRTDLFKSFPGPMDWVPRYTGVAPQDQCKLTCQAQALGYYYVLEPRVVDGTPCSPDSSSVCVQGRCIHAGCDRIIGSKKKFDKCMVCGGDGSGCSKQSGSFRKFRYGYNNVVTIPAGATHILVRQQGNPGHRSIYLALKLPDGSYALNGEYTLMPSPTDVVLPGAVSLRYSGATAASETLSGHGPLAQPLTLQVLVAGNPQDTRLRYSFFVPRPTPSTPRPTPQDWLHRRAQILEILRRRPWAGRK


Experiments:
[1] = target: T2, catalytic domain of stromelysin 1 (MMP-3(ΔC)) (Homo sapiens, UniProt P08254); settings: Table I; data taken from ref. 8; read-out: Ki(app) MMP-3(ΔC); cited from earlier work
T2 construct: the catalytic domains of stromelysin 1 (MMP-3(ΔC)) and membrane-type 1 MMP (MMP-14)
T2 sequence (P08254 100-272 limits assumed, stated change not applied): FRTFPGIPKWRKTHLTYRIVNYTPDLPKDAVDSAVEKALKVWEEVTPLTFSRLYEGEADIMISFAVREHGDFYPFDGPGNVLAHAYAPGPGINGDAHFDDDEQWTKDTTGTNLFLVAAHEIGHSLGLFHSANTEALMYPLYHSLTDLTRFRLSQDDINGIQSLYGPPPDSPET

[2] = target: T1, ADAMTS-4; experiment: Aggrecanase assay with GST-IGD-FLAG substrate, ADAMTS-4; type: biochemical; settings: Table 3, pH 7.5, 37° C., read-out: Ki(app) ADAMTS-4
Protocol: FIG. 8. Graphs of Ki(app) determination. The GST-IGD-FLAG substrate assay was used to determine the Ki(app) of the N-terminal reactive site mutants against ADAMTS-4 (filled squares) and ADAMTS-5 (open circles).
The substrate containing glutathione S-transferase (GST) fused with the interglobular domain (IGD) of aggrecan (Tyr^331 to Gly^457) attached with a C-terminal FLAG sequence (GST-IGD-FLAG) was prepared by cloning it into pGEX-4T1 at the EcoR1 and Xho1 cloning sites. This substrate was expressed in E. coli strain BL-21 (non-DE3) transfected with the pGEX4T1 GST-IGD-FLAG plasmid by induction with […] isopropyl-beta-D-thiogalactopyranoside (IPTG). […] The concentration of intact substrate (52 kDa) was determined by comparison with Coomassie Brilliant Blue staining of known amounts of bovine serum albumin (GE Healthsciences, Buckinghampshire, UK). […]
Aggrecanase assays were carried out in 50 mM Tris HCl pH 7.5, 150 mM NaCl, 10 mM CaCl2, 0.02% NaN3, 0.05% Brij-35 at 37° C. […] The stained gels were then scanned using a scanning densitometer (Biorad GS-710, Hemel Hempstead, UK) and the band intensity of the product (17 kDa) quantified using the 1D Phoretix quantification software (Nonlinear Dynamics, Newcastle upon Tyne, UK). Background subtraction was done using the rolling ball method, and band intensity expressed as pixel volumes.

[3] = tested on: aggrecanase activity in IL-1α- and retinoic acid-stimulated cartilage; experiment: Aggrecanase-generated aggrecan fragments in cartilage conditioned media, Western analysis; type: cell-based; settings: IL-1α- and retinoic acid-stimulated cartilage
From the text: Aggrecan fragments released into the conditioned medium are deglycosylated by digestion with chondroitinase ABC and keratanase and the samples are subjected to SDS/PAGE and Western blotting analysis as described by Little et al.. The primary antibodies used to detect aggrecanase-generated and MMP-generated aggrecan fragments are BC-3 and BC-14, respectively. Antigen-antibody complexes are detected by anti-mouse AP-linked donkey antibody and the AP substrate.
Conditioned media from the above experiments were analyzed by monoclonal antibodies that recognize either the aggrecanase-generated aggrecan neoepitope ARGSV or the MMP-generated aggrecan neoepitope FFGVG. In concordance with GAG release, there was an increase in the amount of aggrecanase-generated aggrecan fragments released upon treatment with either stimulus, but no MMP-generated fragments were detected.

Row | Ki [2] | Molecule | Ki [1] | Release of aggrecanase-generated aggrecan fragments ([3]; 0.05 μM) | Release of aggrecanase-generated aggrecan fragments ([3]; 0.1 μM)
1 | 2.4 ± 1.6 nM | N-TIMP-3: N-terminal inhibitory domain of TIMP-3 (residues 1 to 121), C-terminally His-tagged, wild-type (protein) CTCSPSHPQDAFCNSDIVIRAKVVGKKLVKEGPFGTLVYTIKQMKMYRGFTKMPHVQYIHTEASESLCGLKLEVNKYQYLLTGRVYDGKMYTGLCNFVERWDQLTLSQRKGLNYRYHLGCN | 67 ± 2.8 nM | partially inhibited | completely blocked
2 | 25 ± 3 nM | -1A: N-TIMP-3 mutant with the addition of an N-terminal alanine extension (-1A) (protein) ACTCSPSHPQDAFCNSDIVIRAKVVGKKLVKEGPFGTLVYTIKQMKMYRGFTKMPHVQYIHTEASESLCGLKLEVNKYQYLLTGRVYDGKMYTGLCNFVERWDQLTLSQRKGLNYRYHLGCN |  |  | 

Source: patent US20090318342A1, “Compounds” (IMPERIAL INNOVATIONS LIMITED, priority 2005, published 2009)
